Experimental data published in the supplement of paper PMC7877785.
± gives the uncertainty stated by the source.

Test: self-splicing fitness, log relative to wild type (ln ratio); higher = more splicing; Tetrahymena group I intron in knt gene, E. coli kanamycin selection, DiMSum; sequences stand for … in CUCUCU…GGAGGGAAAAGUUAUCAGGCAUGCACCUGGUAGCUAGUCUUUAAACCAAUAGAUUGCAUCGGUUUAAAAGGCAAGACCGUCAAAUUGCGGGAAAGGGGUCAACAGCCGUUCAGUACCAAGUCUCAGGGGAAACUUUGAGAUGGCCUUGCAAAGGGUAUGGUAAUAAGCUGACGGACAUGGUCCUAACCACGCAGCCAAGUCCUAAGUCAACAGAUCUUCUGUUGAUAUGGAUGCAGUUCACAGACUAAAUGUCGGUCGGGGAAGAUGUAUUCUUCUCAUAAGAUAUAGUCGGACCUCUCCUUAAUGGGAGCUAGCGGAUGAAGUGAUGCAACACUGGAGCCGCUGGGAACUAAUUUGUAUGCGAAAGUAUAUUGAUUAGUUUUGGAGUACUCGUGGUCG
Outline: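 Library with all eight P1ex-region intron nucleotides randomised, intron inside the knt kanamycin-resistance gene on pET-22b(+), in E. coli BL21(DE3). Cells grew overnight at 37°C or 30°C on LB agar with or without 25 μg/mL kanamycin (plus 100 μg/mL carbenicillin, 50 μM IPTG, 0.2% rhamnose), in six replicate transformations. Pooled colonies were amplicon-sequenced on Illumina HiSeq 2500. DiMSum fitness is the error-weighted combination of wild-type-normalised replicate fold changes, kanamycin versus none.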

Sequence | self-splicing fitness (ln) (30 °C) | self-splicing fitness (ln) (37 °C)
UUGAAGCAAUAUUACGGAUA | -0.345 ± 0.08 | -0.413 ± 0.1
UUGAAGCAAUAUUACGGCUU | -3.03 ± 0.26 | -2.71 ± 0.3
UUGAAGCAAUAUUACGGGAG | -1.2 ± 0.1 | -0.884 ± 0.12
UUGAAGCAAUAUUACGGGCG | -0.128 ± 0.061 | 0.407 ± 0.084
UUGAAGCAAUAUUACGGGGC | -3.3 ± 0.2 | -2.74 ± 0.3
UUGAAGCAAUAUUACGGUUC | -3.01 ± 0.2 | -2.08 ± 0.27
UUGAAGCAAUAUUACGUAUC | – | -1.93 ± 0.42
UUGAAGCAAUAUUACGUGGA | -2.33 ± 0.11 | -1.6 ± 0.14
UUGAAGCAAUAUUACGUGGG | -2.69 ± 0.099 | -1.35 ± 0.1
UUGAAGCAAUAUUACGUUAA | -1.47 ± 0.075 | -0.311 ± 0.11
UUGAAGCAAUAUUACGUUAC | – | -2.51 ± 0.23
UUGCAGCAAUAUUACGAGGU | -3.94 ± 0.33 | -2.65 ± 0.44
UUGCAGCAAUAUUACGAUUC | -3.53 ± 0.38 | -1.71 ± 0.19
UUGCAGCAAUAUUACGCCAU | -2.8 ± 0.11 | -2.49 ± 0.16
UUGCAGCAAUAUUACGCCCU | 0.32 ± 0.46 | –
UUGCAGCAAUAUUACGCGUG | -3.13 ± 0.14 | -2.7 ± 0.17
UUGCAGCAAUAUUACGCGUU | -2.41 ± 0.21 | -1.94 ± 0.18
UUGCAGCAAUAUUACGCUGG | -3.51 ± 0.32 | –
UUGCAGCAAUAUUACGCUGU | -2.71 ± 0.35 | -1.23 ± 0.32
UUGCAGCAAUAUUACGGCCA | -0.118 ± 0.16 | 0.347 ± 0.19
UUGCAGCAAUAUUACGGGAA | -1.51 ± 0.12 | 0.101 ± 0.11
UUGCAGCAAUAUUACGGGCG | -0.91 ± 0.11 | -0.511 ± 0.11
UUGCAGCAAUAUUACGGGUA | -1.76 ± 0.097 | -0.893 ± 0.087
UUGCAGCAAUAUUACGGUAA | -0.988 ± 0.099 | -0.0317 ± 0.093
UUGCAGCAAUAUUACGGUCC | -4.25 ± 0.39 | -2.69 ± 0.26
UUGCAGCAAUAUUACGGUUA | 0.353 ± 0.082 | 0.0359 ± 0.075

Sequence | self-splicing fitness (ln) (30 °C) | self-splicing fitness (ln) (37 °C)
UUGCAGCAAUAUUACGUACC | -3.54 ± 0.47 | -2.55 ± 0.33
UUGCAGCAAUAUUACGUAGG | -0.924 ± 0.086 | -0.486 ± 0.11
UUGCAGCAAUAUUACGUCAA | -1.48 ± 0.1 | -0.523 ± 0.11
UUGCAGCAAUAUUACGUCAG | -0.419 ± 0.11 | 0.42 ± 0.14
UUGCAGCAAUAUUACGUCCC | – | -1.44 ± 0.37
UUGCAGCAAUAUUACGUUCA | -0.896 ± 0.12 | 0.241 ± 0.12
UUGGAGCAAUAUUACGACGG | 0.664 ± 0.22 | -0.775 ± 0.29
UUGGAGCAAUAUUACGAUAG | -2.56 ± 0.37 | –
UUGGAGCAAUAUUACGCCGG | – | -1.08 ± 0.34
UUGGAGCAAUAUUACGCGGU | -2.83 ± 0.26 | -2.14 ± 0.38
UUGGAGCAAUAUUACGGCAG | -1.6 ± 0.17 | -1.01 ± 0.22
UUGGAGCAAUAUUACGGGAU | – | -2.77 ± 0.4
UUGGAGCAAUAUUACGUAUC | -2.95 ± 0.2 | –
UUGGAGCAAUAUUACGUAUU | -4.53 ± 0.39 | -1.7 ± 0.22
UUGGAGCAAUAUUACGUCUU | – | -2.09 ± 0.5
UUGGAGCAAUAUUACGUGUU | -2.58 ± 0.2 | -2.79 ± 0.33
UUGGAGCAAUAUUACGUUGG | -1.5 ± 0.27 | -2.92 ± 0.28
UUGUAGCAAUAUUACGAAAA | -1.86 ± 0.17 | -0.986 ± 0.19
UUGUAGCAAUAUUACGAAAU | -3.24 ± 0.46 | -2.15 ± 0.4
UUGUAGCAAUAUUACGAACU | -2.24 ± 0.11 | 0.102 ± 0.1
UUGUAGCAAUAUUACGAUCC | – | -0.641 ± 0.37
UUGUAGCAAUAUUACGAUUU | -3.15 ± 0.25 | -1.91 ± 0.24
UUGUAGCAAUAUUACGCAUC | -3.41 ± 0.34 | -3.19 ± 0.43
UUGUAGCAAUAUUACGCCAA | -1.22 ± 0.13 | -0.297 ± 0.13
UUGUAGCAAUAUUACGCCUG | 0.32 ± 0.14 | 0.399 ± 0.15
UUGUAGCAAUAUUACGCGGG | -3 ± 0.25 | -2.32 ± 0.16

Sequence | self-splicing fitness (ln) (30 °C) | self-splicing fitness (ln) (37 °C)
UUGUAGCAAUAUUACGGACA | -1.61 ± 0.31 | -0.454 ± 0.39
UUGUAGCAAUAUUACGGCCG | -0.356 ± 0.17 | -0.462 ± 0.22
UUGUAGCAAUAUUACGGUCU | -2.53 ± 0.21 | -1.53 ± 0.17
UUGUAGCAAUAUUACGGUUG | -2.38 ± 0.12 | -0.9 ± 0.12
UUGUAGCAAUAUUACGUACA | -1.51 ± 0.2 | -0.822 ± 0.17
UUGUAGCAAUAUUACGUCUG | -0.639 ± 0.067 | 0.19 ± 0.086
UUGUAGCAAUAUUACGUUUU | -2.52 ± 0.24 | -1.98 ± 0.17
UUUAAGCAAUAUUACGAACU | -2.51 ± 0.23 | -1.98 ± 0.23
UUUAAGCAAUAUUACGACAC | -2.23 ± 0.44 | –
UUUAAGCAAUAUUACGACCU | -1.72 ± 0.21 | -1.3 ± 0.18
UUUAAGCAAUAUUACGAGCC | -1.83 ± 0.36 | –
UUUAAGCAAUAUUACGAGUC | – | -2.65 ± 0.48
UUUAAGCAAUAUUACGAUAU | -2.91 ± 0.14 | -1.52 ± 0.14
UUUAAGCAAUAUUACGAUUU | -1.92 ± 0.16 | -0.754 ± 0.13
UUUAAGCAAUAUUACGCAAU | -2.5 ± 0.24 | -1.55 ± 0.23
UUUAAGCAAUAUUACGCACC | -2.05 ± 0.21 | -0.66 ± 0.22
UUUAAGCAAUAUUACGCAUG | -1.07 ± 0.089 | -0.408 ± 0.099
UUUAAGCAAUAUUACGCGUC | -1.9 ± 0.18 | -1.77 ± 0.25
UUUAAGCAAUAUUACGCUCC | -2.1 ± 0.22 | -0.172 ± 0.29
UUUAAGCAAUAUUACGCUUA | – | -3.03 ± 0.33
UUUAAGCAAUAUUACGGAAG | -2.97 ± 0.26 | -1.37 ± 0.3
UUUAAGCAAUAUUACGGAGC | -1.94 ± 0.25 | -1.43 ± 0.47
UUUAAGCAAUAUUACGGAUC | -1.33 ± 0.43 | –
UUUAAGCAAUAUUACGGUGC | -3.88 ± 0.46 | -2.01 ± 0.47
UUUAAGCAAUAUUACGUAUG | -1.44 ± 0.13 | -0.482 ± 0.16
UUUAAGCAAUAUUACGUCGG | -0.492 ± 0.079 | -0.762 ± 0.089

Sequence | self-splicing fitness (ln) (30 °C) | self-splicing fitness (ln) (37 °C)
UUUAAGCAAUAUUACGUGUC | -3.99 ± 0.33 | -2.65 ± 0.25
UUUCAGCAAUAUUACGAGGC | -2.12 ± 0.22 | –
UUUCAGCAAUAUUACGAGGG | -3.94 ± 0.25 | -1.02 ± 0.13
UUUCAGCAAUAUUACGCAGA | -1.32 ± 0.27 | -1.6 ± 0.24
UUUCAGCAAUAUUACGCAGG | -2.53 ± 0.18 | -1.65 ± 0.23
UUUCAGCAAUAUUACGCAUA | -2.13 ± 0.21 | -0.691 ± 0.17
UUUCAGCAAUAUUACGCCCC | -1.57 ± 0.3 | –
UUUCAGCAAUAUUACGCUGA | -3.32 ± 0.47 | -2.24 ± 0.42
UUUCAGCAAUAUUACGCUUC | -0.771 ± 0.21 | -2.33 ± 0.38
UUUCAGCAAUAUUACGUCAG | -0.968 ± 0.089 | -0.726 ± 0.12
UUUCAGCAAUAUUACGUCGA | -1.11 ± 0.11 | -1.25 ± 0.12
UUUCAGCAAUAUUACGUGCC | -3.44 ± 0.25 | -1.57 ± 0.23
UUUCAGCAAUAUUACGUGUA | -2.47 ± 0.12 | -1.57 ± 0.1
UUUCAGCAAUAUUACGUUCU | – | -1.89 ± 0.21
UUUCAGCAAUAUUACGUUGA | – | -1.85 ± 0.34
UUUCAGCAAUAUUACGUUGU | -3.23 ± 0.21 | -2.06 ± 0.15
UUUCAGCAAUAUUACGUUUU | -3.86 ± 0.23 | -1.13 ± 0.14
UUUGAGCAAUAUUACGAGCG | – | -1.88 ± 0.35
UUUGAGCAAUAUUACGCAAA | -2.8 ± 0.25 | -2.25 ± 0.21
UUUGAGCAAUAUUACGCCAA | – | -1.56 ± 0.27
UUUGAGCAAUAUUACGCCGA | -2.3 ± 0.42 | -1.61 ± 0.41
UUUGAGCAAUAUUACGCCUC | – | -0.879 ± 0.39
UUUGAGCAAUAUUACGCGAC | -2.15 ± 0.35 | –
UUUGAGCAAUAUUACGGACU | -4.55 ± 0.34 | -2.99 ± 0.23
UUUGAGCAAUAUUACGGCCU | -3.9 ± 0.4 | 0.167 ± 0.26
